Test system: K4 kissing-loop RNA reporter
Assay: apparent KD of K4 kissing-loop reporter; higher = weaker reporter binding
Conditions: Eterna round: R107
Procedure: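 RNA-MaP round R107: designed RNA switches with theophylline, tryptophan, arginine or FMN aptamers are transcribed on-chip within common flanks. They are titrated with a labelled K4 kissing-loop RNA reporter in RNA-MaP buffer (100 mM Tris pH 7.5, 80 mM KCl, 4 mM MgCl2), without ligand or with the indicated ligand. Median apparent KD per design.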

[1] = input ligand: theophylline 20 uM
[2] = input ligand: tryptophan 2.4 mM
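Further: bound reporter read as fluorescence of individual clusters on recovered sequencing chips by microscopy, with normalized cluster intensities fitted with a binding model.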

Sequence	apparent KD of K4 kissing-loop reporter (input ligand: FMN 200 uM)	apparent KD of K4 kissing-loop reporter (input ligand: arginine 13.2 mM)	apparent KD of K4 kissing-loop reporter (input ligand: none)	apparent KD of K4 kissing-loop reporter [1]	apparent KD of K4 kissing-loop reporter [2]
AAGAAUAAUCUUGCAGUGAUGUUGCAAGAUACCAGCAUCGAAAGAUGCCCUUGGCAGCUUGAAAACAUCACUAUCAAGCUGCAUA [Design2]	620 nM	452 nM	664 nM	552 nM	558 nM
UGCGCUGCCUGAGGAUAUAGAAACGAGUGAUGUUCGUGGAUAAGAGCCAGUGAUGUUGGGUUAUUUCUAGAAGGCAGGCAAAGUA [Exclusion FMN B GF7]	108 nM	98.2 nM	117 nM	93.4 nM	104 nM
AGUGCCGAGUGUGAUACCAGCUUCAUGCAGUGAUGUUGCACACGAGUGAUGUUCGUCCGAGGCCCUUGGCAGCGCAGUCGCUCGA [Same State Theophylline B Gf 30]	751 nM	807 nM	885 nM	711 nM	670 nM
GAGAUAGAGGCGGCCGCCACUAGUGAUGUUAGUGAUGUUAGAUAGAGAAUAUAACAGGGAUUAGAUAGGACCGGGCCAGAUGGAG ['lljullin]	116 nM	104 nM	130 nM	103 nM	100 nM
AAGGUCACUACUACAGUGAUGUUGUAGGAGCAGGAUAUGCAGAAAUGCAGAAGGGCUCGCUCCAAGUGACCGAAUGAAACAUUCA [Omei KL FMN A SS A v2]	368 nM	430 nM	607 nM	611 nM	482 nM
UAUAAGCGCAGAGGAUAUACUAGCUUUCACUAGUGCAGUGAUGUUGCACUAGACCAGCUGUACAUAGUAGAAGGCUGCGUUCCUU [FMN B SS t1]	89.1 nM	116 nM	112 nM	131 nM	117 nM
CAUACGCAUGGAGGAUAUGAGAUUUCUCAUAUUAUUUAUUAUUCUCAGUGAUGUUGGGAUUUAAACUCAGAAGGCCAUGUGUAUG [Ex FMN B 8]	252 nM	176 nM	175 nM	244 nM	199 nM
UGAUACCAGACGGCCGCCACUGCACCAGUCAAUGACUGAGUGUAGUAAUGCUCAGUGAUGUUGAGUAGGACCGGGUCUGGUAUCU [Mod of Eli's TrypBX 8 v1]	141 nM	122 nM	128 nM	122 nM	130 nM
CGAUUUGCUUCAGCCUUAGUGAUGUUAAGGCGAGGACCGGUACGGCCGCCACUCGUAGGUUAUGUGCACGGCGGCGCUAAGGGCC [theeternabot_exclusion_KL_Trp_A_36]	109 nM	107 nM	111 nM	120 nM	108 nM
GCGCGGGUCAGUGAUGUUGACCCUCGGAGACGAGGACCGGUACGGCCGCCACUCGUCCGCGCAGCUGAGGCAAAAGCCUCGGCAA [Omei KL Tryp A SS B v5]	155 nM	142 nM	140 nM	131 nM	103 nM
UAGUGGUAGACCAGAUCUACCACUAGGGAUACCAGCCUCGGUCGAGGCCCUUGGCAGCCCAGCGGGUCCAGUGAUGUUGGAUGUC [Raanza]	355 nM	256 nM	322 nM	194 nM	295 nM
UGCACGGGCUCGGCCGCCACUCCCGCGGGUCGCAAGGUCCGCUACUGAGUGAUGUUCGGUUGGAGGAGGACCGGGAGCCCGUGCA [#2 Exclusion - Tryptophan B Attempt #27 (HarryS)]	131 nM	110 nM	113 nM	112 nM	107 nM
CCUUCCGACACGGCCGCCACUAAUUUCAUCAGAUUGCCCGGAUUUCCAAGAUAGUGAUGUUGUACUAGGACCGGGUGUCAGGUCG [theeternabot_exclusion_KL_Trp_B_16]	874 nM	680 nM	816 nM	760 nM	775 nM
UGUCAUUGGUCGGCCGCCACUCCAUAACGAGUGAUGUUCUAAAAGACGGAUCGAAAGAUCUGUCGGAGGACCGGGACCGAUGACU [FiskerMod 6 - Jieux - Same State - Tryptophan B]	558 nM	308 nM	622 nM	274 nM	1140 nM
GAUUUAGAGGCGGCCGCCACUAGUGAUGUUAGUGAUGUUUGAUAGGGAAUAUAUCUGCGAGUAGAUAGGACCGGGCCAGAUGGAG [eccvbmullin]	192 nM	128 nM	150 nM	168 nM	151 nM
GGCACGUUCCCUUGAUCAGUGAUGUUGUUUCGAGGACCGGUACGGCCGCCACUCGCUCGGCGUUCGCCCAGGCCCGGAAAACUGC [theeternabot_exclusion_KL_Trp_A_13]	241 nM	207 nM	224 nM	217 nM	225 nM
UUCUUGAUGGAAACAUCGAGGAUUACUGAUACCAGUAUCGAUAGAUACCCUUGGCAGCAGUAUCGGUGAUCACGAGUGAUGUUCG [Ex Theophylline A K4 11]	669 nM	576 nM	785 nM	757 nM	607 nM
CGAGUCCUGAGGAGUGAUGUUCCUCGGCCACGAGGACCGGUACGGCCGCCACUCGUUACUCGAGCUUAGUAGCUAGCACUAAGCC [Zaussora]	189 nM	164 nM	179 nM	186 nM	109 nM
ACGCGCGCGAGUGAUGUUCGGAGCGGCUGGCAGGAUAUGUAGCAAUGCAGAAGGGUCGUGGCGCGUCCAGGGUAACCUGGACGCG [#2 Exclusion - FMN A Attempt #26 (HarryS)]	280 nM	229 nM	1040 nM	455 nM	719 nM
GCAACAUUGGUAGGAUAUCAUUCUGAGUGAUGUUCAGGGUUCAGCUAACGAAAGUUAGUUGUACCAUGAGAAGGGCUAAUGUUGC [Omei KL FMN B SS A v5]	425 nM	711 nM	967 nM	820 nM	989 nM
UGUGAUGAGUAGAGUGAUGUUUUGAAGGAUACCAGAGUGUUGUUAUUCCCUUGGCAGCUUGAGUGAUGUUUGAUGUUGUUGUUGU [rcrrmullin]	328 nM	221 nM	253 nM	205 nM	211 nM

Sequence	apparent KD of K4 kissing-loop reporter (input ligand: FMN 200 uM)	apparent KD of K4 kissing-loop reporter (input ligand: arginine 13.2 mM)	apparent KD of K4 kissing-loop reporter (input ligand: none)	apparent KD of K4 kissing-loop reporter [1]	apparent KD of K4 kissing-loop reporter [2]
ACCAUCAAAGAUGGCCAGGACACCGCUGAUACCAGAGUGAAAACACUCCCUUGGCAGCAGGUGAGUGAUGUUCACAGUCCAUGGA [Omel KL Theo A SS B v2]	566 nM	422 nM	588 nM	901 nM	361 nM
CGCAGUGAUGUUGCGAGUAGCUACAGGGAAGGAGCGUGCUAGAGCACAGGUAGGUCGCCCUCGGGCAGUGAUGUUGCCAAAGGUU [Exclusion ARginine A GF 16]	77.1 nM	85.2 nM	79.8 nM	80.6 nM	68.3 nM
AGGAGUGAUGUUCCUACAUACACGGUCCGACGAGGACCGGUACGGCCGCCACUCGCGUCCCAGUGAUGUUGGGAUUUGGCGUACA [Exclusion Tryptophan A Gf 16]	162 nM	168 nM	180 nM	141 nM	144 nM
GCUAUGGUAGGAAGGAGCGCUGCCUUGUUUUUACGAGUGAUGUUCGGAAGCAGGGCGUUAAAGCAGGUAGGUCGCCUACUAUAGC [Arginine B K4 22]	220 nM	135 nM	152 nM	147 nM	146 nM
GGGAGUAGUGCGGCCGCCACUGAGAAAGAAGAAGAAUAUAGUGAUGUUAUAUAGGAAUAAAAGAACAGGACCGGGCAUUAGAUUU [SSTRyptB.T]	263 nM	239 nM	255 nM	196 nM	167 nM
CCCGUGGGUUUGAGAGGGCUUGUGGGAAGUAAGGAUAUUUAGGGAGAAAGAAGGUACUAUAGAAUAUAGUGAUGUUAUAUAUGGG [#06 K4 FMN A Same State]	238 nM	218 nM	232 nM	126 nM	170 nM
AGUACAGACACGGCCGCCACUCAGAAGAAGACAGUAGUGAUGUUACUGAUGGUGAGAAUAAUAAAGAGGACCGGGUGUUGUGCAA [#04 K4 Tryptophan B Same State]	222 nM	202 nM	224 nM	240 nM	138 nM
CCCGCGUCGUUAGUGAUGUUGACUUCUGAUACCAGUCGCAGGUAGGACCCUUGGCAGCAGCAGUUUUGUUAUAUGUAGGAUCCAG [theeternabot_exclusion_KL_Theo_A_36]	727 nM	201 nM	717 nM	445 nM	490 nM
UUAUAUUUUAUAUUUAGAUGAUCUAUAGCACGAGGACCGGUACGGCCGCCACUCGAGUGAUGUUCGAGAGCUAUAGAUCAUCAUU [AK2.2 EXC Tryptophan A]	142 nM	132 nM	148 nM	121 nM	207 nM
CGCACACUUGUUGAUACCAGAAGCCGACCGGAAACAUCAUUGAGUGAUGUUCAAGCUGUUUUCCCUUGGCAGCAAACGAGUGGUC [theeternabot_exclusion_KL_Theo_B_22]	150 nM	120 nM	138 nM	132 nM	138 nM
UGAUUGGCGAAAGUAGUGAUGUUACGAAUAUAGGAUAUUAGAGGAAUAAGAAGGAUAAAUGAGAAAUAGGUAAAUUGUUGGUUGG [FMN same state]	101 nM	51.5 nM	95.5 nM	116 nM	94.5 nM
UACAGGGAUAGUGAUGUUAUCCCAUGUGAUACCAGUGCCAUCCAACACCCUUGGCAGCAUACGGGCAGUGAUGUUGUUCUUGGUU [Exclusion Theophylline A GF 13]	96.1 nM	85.4 nM	93.7 nM	87.1 nM	88.5 nM
GUGCGCGGUGCGGCCGCCACUCGCAUGAGAGUGAUGUUCUCGGGACGGACGGAAGUCCGUCAUGUGAGGACCGGGCAUGGCUGCG [#2 Same State - Tryptophan B Attempt #10 (HarryS)]	894 nM	344 nM	416 nM	497 nM	453 nM
AACUCUCAGGCACGCGAGUGAUGUUCGCGGCGAGGACCGGUACGGCCGCCACUCGCGCCUGAGAGAGGUUAUCAAAGAUAGCCAA [whbob_SS_tryp_A]	146 nM	51.3 nM	116 nM	118 nM	223 nM
AGUGUGCAAAAGCACACUCAGUACAAGGACAAGGAUAUCUACUAAUAGAGAAGGUGUCCUUUCCUUAGUGAUGUUAAGGAACUGA [Omei KL FMN A SS D v3]	205 nM	500 nM	617 nM	657 nM	595 nM
GCAGUGAUGUUGCGGAUGUACAGUGGCGUGCGAGGACCGGUACGGCCGCCACUCGUACAGAGCAAGCUAAUACAUCGAUAGGUGA [whbob_SS_Tryp_A_m4]	436 nM	223 nM	207 nM	382 nM	240 nM
UGAUAGGACAGAAGGAGCGGGAGUGAUGUUCCCAAGGAUUGGUCUAGCAAAGCUGGACCCUCCCAGGUAGGUCGCUGUCCUAUCU [ArgBX 5 #SwitchBubble #StaticStem]	195 nM	223 nM	222 nM	182 nM	191 nM
AGUAGUUGGGCGGCCGCCACUGGAACAGCUUUGCCAAAGGCAGAGCACUAGAGUGAUGUUCUAGCUAGGACCGGGUCCAACUACA [whbob_SS_Tryp_B_t17]	588 nM	250 nM	444 nM	252 nM	1220 nM
AGACUACCACACUGUCAAUAGACAGUGAACUCGGAUAUGCUGAUAAGCAGAAGGAGUGAUGUUCCUAGGUAGUCAAUAAAAUAAU [FmnAX 13 C32]	160 nM	242 nM	376 nM	370 nM	359 nM
CAUCUCAUGAAAUGAGAUGUCAUCAGUGAAGGAGCGCUAUUAGCAGCAGGUAGGUCGCACUGAAGCGGAGUGAUGUUCUGUAUGA [Arg A SS t3]	170 nM	220 nM	293 nM	214 nM	150 nM
GACUGGAGUGAUGUUCCAUUAACGAUCCUACGAGGACCGGUACGGCCGCCACUCGAAAUGCAGUGAUGUUGCAGCCAGCCGUACU [Exclusion Trptophan A GF 8]	157 nM	180 nM	162 nM	192 nM	142 nM

Source: the supplement of paper PMC9170038
